Laboratory results reported in paper PMC8085985.

Target: Fervidobacterium islandicum AW‐1 SufS family cysteine desulfurase (FiSufS) (Fervidobacterium islandicum AW-1)
Experiment: SEC

Fervidobacterium islandicum AW‐1 SufS family cysteine desulfurase (FiSufS) (enzyme)
stoichiometry N: 2
